Measurements published in PMC3958255 (Sensors (Basel, Switzerland), 2014).

Experiments:
[1] = target: T1, Jun-Lc (bJun fused upstream of mLumin (151-233)) (UniProt P05412 257-318); assay: split reporter (BiFC, NanoBiT); mLumin-based BiFC from the bicistronic vector pBudCE4.1 (BEVL-BiFC) in living COS-7 cells; 100 ng vector (also 300 ng) with 30 ng pmCerulean-C1 as internal control; imaged 16 h after cotransfection; BiFC efficiency = fluorescence intensity ratio of mLumin to mCerulean; details: partners not purified
T1 construct: primers are in the Supporting Information; also called bJun-Lc; source: COS-7, transfected (pBudCE4.1 bicistronic vector), in living cells; not shown: mLumin (151-233) (Lc), C-terminal, kept

[2] = target: T2, Lc-Jun (bJun fused downstream of mLumin (151-233)) (UniProt P05412 257-318); assay: as above; details: partners not purified
T2 construct: primers are in the Supporting Information; also called Lc-bJun; source: COS-7, transfected (pBudCE4.1 bicistronic vector), in living cells; not shown: mLumin (151-233) (Lc), N-terminal, kept
T2 sequence (P05412 257-318): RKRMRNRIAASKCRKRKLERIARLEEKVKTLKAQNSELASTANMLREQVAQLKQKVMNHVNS

T1 sequence (P05412 257-318): as above

B1: Ln-Fos (bFos fused downstream of mLumin (1-151)) (domain or fragment, UniProt P01100 118-210, looked up)
chain: GRAQSIGRRGKVEQLSPEEEEKRRIRRERNKMAAAKCRNRRRELTDTLQAETDQLEDEKSALQTEIANLLKEKEKLEFILAAHRPACKIPDDL
notes: primers are in the Supporting Information; also called Ln-bFos; source: COS-7, transfected (pBudCE4.1 bicistronic vector), in living cells; not shown: mLumin (1-151) (Ln), N-terminal, kept
With B1 the “fold contrast in BiFC efficiency over ΔFos/Jun” value [1] was ~25 fold and the “fold contrast in BiFC efficiency over ΔFos/Jun” value [2] was ~25 fold.
